Stoichiometry N data for one substance are collected here from article PMC13186708.

The target in this experiment is Alistipes sp. Cas12f (Al3Cas12f), wild type (Alistipes sp.). The experiment can be described thus: SEC; apo Al3Cas12f without gRNA on an S200i 10/300 GL column; 50 mM Tris-HCl pH 7.5, 250 mM NaCl, 10 mM MgCl2, 0.5 mM EDTA, 5% glycerol, 0.5 mM TCEP; peak at about 11.5 mL, near the 158 kDa standard.

On to “Alistipes sp. Cas12f (Al3Cas12f), wild type (enzyme)”, for which the stoichiometry N is 2.
